From patent US20050215470A1 (Amgen, published 2005)
Blank lines part the entries; values can stand above or below the binder they belong to. Non-standard residues stand in square brackets, D forms with d. No end group written: not given here. Gly(cPent) = N[C@H](C(=O)O)C1CCCC1; Hyp = O=C(O)[C@@H]1C[C@@H](O)CN1; dTic = O=C(O)[C@H]1Cc2ccccc2CN1

Tests used:
[1] = molecular target: T1, human bradykinin B1 receptor (human, UniProt P46663 1-353); experiment: cell-based or functional assay
T1 sequence (looked up): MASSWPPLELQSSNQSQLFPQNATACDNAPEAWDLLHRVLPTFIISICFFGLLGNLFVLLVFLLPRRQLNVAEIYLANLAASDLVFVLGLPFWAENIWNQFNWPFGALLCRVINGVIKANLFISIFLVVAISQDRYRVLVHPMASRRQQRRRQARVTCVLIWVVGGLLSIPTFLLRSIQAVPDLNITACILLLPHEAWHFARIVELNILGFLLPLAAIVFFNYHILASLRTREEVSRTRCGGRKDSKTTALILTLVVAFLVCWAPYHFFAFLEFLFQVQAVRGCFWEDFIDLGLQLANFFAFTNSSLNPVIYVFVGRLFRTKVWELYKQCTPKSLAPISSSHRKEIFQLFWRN

[2] = molecular target: T2, human bradykinin B2 receptor (human, UniProt P30411 1-391); experiment: cell-based or functional assay
T2 sequence (looked up): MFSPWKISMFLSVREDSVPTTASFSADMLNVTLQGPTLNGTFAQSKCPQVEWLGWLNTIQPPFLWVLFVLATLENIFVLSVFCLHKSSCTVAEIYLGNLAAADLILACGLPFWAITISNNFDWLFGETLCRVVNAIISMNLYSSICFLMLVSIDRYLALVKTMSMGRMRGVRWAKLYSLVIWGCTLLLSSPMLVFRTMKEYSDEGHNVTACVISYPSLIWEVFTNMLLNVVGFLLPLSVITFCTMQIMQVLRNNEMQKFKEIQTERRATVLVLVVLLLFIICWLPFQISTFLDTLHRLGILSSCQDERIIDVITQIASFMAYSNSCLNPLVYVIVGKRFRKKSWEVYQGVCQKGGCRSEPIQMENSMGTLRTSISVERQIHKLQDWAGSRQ

[3] = molecular target: T1, human bradykinin B1 receptor; experiment: cell-based or functional assay; remark: listed apart in the source
[4] = molecular target: T1, human bradykinin B1 receptor; experiment: binding affinity (Ki) at the human B1 receptor; assay format not described

fold increase in IC50 in the hB1 aequorin assay against the unconjugated peptide [1]: ~10 fold
antagonist activity in the hB2 FLIPR assay [2]: > 10 µM
B1: the same peptide (SEQ ID NO:36) conjugated to PEG (peptide)
peptide: KKRP[Hyp]G[Gly(cPent)]S[dTic][Gly(cPent)]
modifications: also: conjugated to PEG, size, linker and site not given here

hB1 IC50 (nM), functional potency [3]: 1 nM
Ki [4]: 0.8 nM
antagonist activity in the hB2 FLIPR assay [2]: > 10 µM
B2: SEQ ID NO: 37 (peptide)
peptide: Ac-KKRP[Hyp]G[Gly(cPent)]S[dTic][Gly(cPent)]

IC50 in the hB1 aequorin assay [1]: 3 nM
antagonist activity in the hB2 FLIPR assay [2]: > 10 µM
B3: SEQ ID NO:36 (peptide)
peptide: KKRP[Hyp]G[Gly(cPent)]S[dTic][Gly(cPent)]
